# Patent US20180155451A1 (published 2018)
# T1: FcγRIIb extracellular domain with C-terminal His tag (human, UniProt P31994 43-217)
# T1 construct: extracellular domain; Soluble receptor expressed in FreeStyle293 cells; analyte in Biacore; also called FcgRIIb; 2b; not shown: His tag at the C terminus
# T1 sequence (looked up): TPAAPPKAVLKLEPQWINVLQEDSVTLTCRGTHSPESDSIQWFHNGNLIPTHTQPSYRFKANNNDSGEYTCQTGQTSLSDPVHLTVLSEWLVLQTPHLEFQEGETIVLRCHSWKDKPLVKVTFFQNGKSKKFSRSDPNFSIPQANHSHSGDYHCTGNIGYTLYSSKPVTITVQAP
# Columns and labels:
# [1] = biological target: T2, FcγRIa extracellular domain with C-terminal His tag (human, UniProt P12314 16-292); test: SPR (Biacore), antibody captured on antigen peptide chip, FcγR as analyte; binding relative to GpH7-A5/GpH7-B3/GpL16-k0 = 100
# T2 construct: extracellular domain; Soluble receptor expressed in FreeStyle293 cells; analyte in Biacore; also called FcgRI; FcgRIa; not shown: His tag at the C terminus
# T2 sequence (P12314 16-292): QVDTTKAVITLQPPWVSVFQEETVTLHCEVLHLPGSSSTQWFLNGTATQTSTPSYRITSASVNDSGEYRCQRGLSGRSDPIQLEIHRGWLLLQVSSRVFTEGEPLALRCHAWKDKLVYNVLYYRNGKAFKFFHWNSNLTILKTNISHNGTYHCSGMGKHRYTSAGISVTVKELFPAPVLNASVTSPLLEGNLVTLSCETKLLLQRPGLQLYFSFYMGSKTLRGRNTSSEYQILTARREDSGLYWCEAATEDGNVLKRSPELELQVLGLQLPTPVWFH
# Protocol: (§1) The heterodimerized antibodies He Abs in which one of the H chains was introduced with an alteration were assayed for their binding activities to each activating FcγR and inhibitory FcγR according to the method described in Example 4. […] The activating FcγRs in FIGS. 26, 27, 28, and 29 are FcγRIa, FcγRIIa (R), FcγRIIa (H), and FcγRIIIa, respectively.
# (§2) Analysis of interaction between objective antibody and the FcγR was carried out using Biacore T100 (GE Healthcare). HBS-EP+ (GE Healthcare) was used as the running buffer, and the measurement temperature was set to 25° C. Chips produced by immobilizing the antigen peptide by the amine coupling method to a Series S Sencor Chip CM5 (GE Healthcare), or alternatively, chips produced by allowing preliminarily biotinylated antigen peptides to interact with and immobilize onto a Series S Sensor Chip SA (certified) (GE Healthcare) were used. Antibodies of interest were captured onto an antigen peptide-immobilized chip, and allowed to interact to each FcγR diluted with running buffer. To regenerate and repeatedly use the chip, the antibodies captured on the chip were washed off by reacting 10 mM glycine-HCl, pH 1.5.
# [2] = biological target: T1, FcγRIIb extracellular domain with …; test: as above
# Protocol: as §1, §2
# [3] = biological target: T2, FcγRIa extracellular domain with …; test: SPR (Biacore); He/Con_1a divided by He/Con_2b (FcγRIIb)
# Protocol: as §1, §2
He/Con_1a (Ia binding) [1],He/Con_2b (IIb binding) [2],He_1a/2b (Ia/IIb) [3],Binder
104 % of control (control = 100),58.2 % of control (control = 100),1.78,"GpH7-A5/GpH7-B3 variant I336_19Q/GpL16-k0 (antibody, human IgG1, kappa, He Ab: heterodimerized anti-glypican-3 IgG1, substitution in one H chain only; also called He Ab I336Q) heavy 1: not shown heavy 2: not shown light: DIVMTQSPLSLPVTPGEPASISCQASESLVHSNRNTYLHWYLQKPGQSPQLLIYKVSNRFSGVPDRFSGSGSGTDFTLKISRVEAEDVGVYYCSQNTHVPPTFGQGTKVEIERTVAAPSVFIFPPSDEQLKSGTASVVCLLNNFYPREAKVQWKVDNALQSGNSQESVTEQDSKDSTYSLSSTLTLSKADYEKHKVYACEVTHQGLSSPVTKSFNRGEC"
86.7 % of control (control = 100),20.3 % of control (control = 100),4.28,"GpH7-A5/GpH7-B3 variant I336_20W/GpL16-k0 (antibody, human IgG1, kappa, He Ab: heterodimerized anti-glypican-3 IgG1, substitution in one H chain only; also called He Ab I336W) heavy 1: not shown heavy 2: not shown light: DIVMTQSPLSLPVTPGEPASISCQASESLVHSNRNTYLHWYLQKPGQSPQLLIYKVSNRFSGVPDRFSGSGSGTDFTLKISRVEAEDVGVYYCSQNTHVPPTFGQGTKVEIERTVAAPSVFIFPPSDEQLKSGTASVVCLLNNFYPREAKVQWKVDNALQSGNSQESVTEQDSKDSTYSLSSTLTLSKADYEKHKVYACEVTHQGLSSPVTKSFNRGEC"
97.2 % of control (control = 100),80.2 % of control (control = 100),1.21,"GpH7-A5/GpH7-B3 variant L328_01G/GpL16-k0 (antibody, human IgG1, kappa, He Ab: heterodimerized anti-glypican-3 IgG1, substitution in one H chain only; also called He Ab L328G) heavy 1: not shown heavy 2: not shown light: DIVMTQSPLSLPVTPGEPASISCQASESLVHSNRNTYLHWYLQKPGQSPQLLIYKVSNRFSGVPDRFSGSGSGTDFTLKISRVEAEDVGVYYCSQNTHVPPTFGQGTKVEIERTVAAPSVFIFPPSDEQLKSGTASVVCLLNNFYPREAKVQWKVDNALQSGNSQESVTEQDSKDSTYSLSSTLTLSKADYEKHKVYACEVTHQGLSSPVTKSFNRGEC"
92.2 % of control (control = 100),65.1 % of control (control = 100),1.42,"GpH7-A5/GpH7-B3 variant L328_05P/GpL16-k0 (antibody, human IgG1, kappa, He Ab: heterodimerized anti-glypican-3 IgG1, substitution in one H chain only; also called He Ab L328P) heavy 1: not shown heavy 2: not shown light: DIVMTQSPLSLPVTPGEPASISCQASESLVHSNRNTYLHWYLQKPGQSPQLLIYKVSNRFSGVPDRFSGSGSGTDFTLKISRVEAEDVGVYYCSQNTHVPPTFGQGTKVEIERTVAAPSVFIFPPSDEQLKSGTASVVCLLNNFYPREAKVQWKVDNALQSGNSQESVTEQDSKDSTYSLSSTLTLSKADYEKHKVYACEVTHQGLSSPVTKSFNRGEC"
98.7 % of control (control = 100),80.8 % of control (control = 100),1.22,"GpH7-A5/GpH7-B3 variant L328_18N/GpL16-k0 (antibody, human IgG1, kappa, He Ab: heterodimerized anti-glypican-3 IgG1, substitution in one H chain only; also called He Ab L328N) heavy 1: not shown heavy 2: not shown light: DIVMTQSPLSLPVTPGEPASISCQASESLVHSNRNTYLHWYLQKPGQSPQLLIYKVSNRFSGVPDRFSGSGSGTDFTLKISRVEAEDVGVYYCSQNTHVPPTFGQGTKVEIERTVAAPSVFIFPPSDEQLKSGTASVVCLLNNFYPREAKVQWKVDNALQSGNSQESVTEQDSKDSTYSLSSTLTLSKADYEKHKVYACEVTHQGLSSPVTKSFNRGEC"
102 % of control (control = 100),40.5 % of control (control = 100),2.52,"GpH7-A5/GpH7-B3 variant P329_02A/GpL16-k0 (antibody, human IgG1, kappa, He Ab: heterodimerized anti-glypican-3 IgG1, substitution in one H chain only; also called He Ab P329A) heavy 1: not shown heavy 2: not shown light: DIVMTQSPLSLPVTPGEPASISCQASESLVHSNRNTYLHWYLQKPGQSPQLLIYKVSNRFSGVPDRFSGSGSGTDFTLKISRVEAEDVGVYYCSQNTHVPPTFGQGTKVEIERTVAAPSVFIFPPSDEQLKSGTASVVCLLNNFYPREAKVQWKVDNALQSGNSQESVTEQDSKDSTYSLSSTLTLSKADYEKHKVYACEVTHQGLSSPVTKSFNRGEC"

# The next lines start with the binder.
Binder,He/Con_1a (Ia binding) [1],He/Con_2b (IIb binding) [2],He_1a/2b (Ia/IIb) [3]
"GpH7-A5/GpH7-B3 variant E333_13S/GpL16-k0 (antibody, human IgG1, kappa, He Ab: heterodimerized anti-glypican-3 IgG1, substitution in one H chain only; also called He Ab E333S) heavy 1: not shown heavy 2: not shown light: DIVMTQSPLSLPVTPGEPASISCQASESLVHSNRNTYLHWYLQKPGQSPQLLIYKVSNRFSGVPDRFSGSGSGTDFTLKISRVEAEDVGVYYCSQNTHVPPTFGQGTKVEIERTVAAPSVFIFPPSDEQLKSGTASVVCLLNNFYPREAKVQWKVDNALQSGNSQESVTEQDSKDSTYSLSSTLTLSKADYEKHKVYACEVTHQGLSSPVTKSFNRGEC",103 % of control (control = 100),81.8 % of control (control = 100),1.26
"GpH7-A5/GpH7-B3 variant E333_16H/GpL16-k0 (antibody, human IgG1, kappa, He Ab: heterodimerized anti-glypican-3 IgG1, substitution in one H chain only; also called He Ab E333H) heavy 1: not shown heavy 2: not shown light: DIVMTQSPLSLPVTPGEPASISCQASESLVHSNRNTYLHWYLQKPGQSPQLLIYKVSNRFSGVPDRFSGSGSGTDFTLKISRVEAEDVGVYYCSQNTHVPPTFGQGTKVEIERTVAAPSVFIFPPSDEQLKSGTASVVCLLNNFYPREAKVQWKVDNALQSGNSQESVTEQDSKDSTYSLSSTLTLSKADYEKHKVYACEVTHQGLSSPVTKSFNRGEC",101 % of control (control = 100),83.3 % of control (control = 100),1.21
"GpH7-A5/GpH7-B3 variant E333_18N/GpL16-k0 (antibody, human IgG1, kappa, He Ab: heterodimerized anti-glypican-3 IgG1, substitution in one H chain only; also called He Ab E333N) heavy 1: not shown heavy 2: not shown light: DIVMTQSPLSLPVTPGEPASISCQASESLVHSNRNTYLHWYLQKPGQSPQLLIYKVSNRFSGVPDRFSGSGSGTDFTLKISRVEAEDVGVYYCSQNTHVPPTFGQGTKVEIERTVAAPSVFIFPPSDEQLKSGTASVVCLLNNFYPREAKVQWKVDNALQSGNSQESVTEQDSKDSTYSLSSTLTLSKADYEKHKVYACEVTHQGLSSPVTKSFNRGEC",96.6 % of control (control = 100),76.1 % of control (control = 100),1.27
"GpH7-A5/GpH7-B3 variant I332_12R/GpL16-k0 (antibody, human IgG1, kappa, He Ab: heterodimerized anti-glypican-3 IgG1, substitution in one H chain only; also called He Ab I332R) heavy 1: not shown heavy 2: not shown light: DIVMTQSPLSLPVTPGEPASISCQASESLVHSNRNTYLHWYLQKPGQSPQLLIYKVSNRFSGVPDRFSGSGSGTDFTLKISRVEAEDVGVYYCSQNTHVPPTFGQGTKVEIERTVAAPSVFIFPPSDEQLKSGTASVVCLLNNFYPREAKVQWKVDNALQSGNSQESVTEQDSKDSTYSLSSTLTLSKADYEKHKVYACEVTHQGLSSPVTKSFNRGEC",100 % of control (control = 100),48.9 % of control (control = 100),2.05
"GpH7-A5/GpH7-B3 variant I336_01G/GpL16-k0 (antibody, human IgG1, kappa, He Ab: heterodimerized anti-glypican-3 IgG1, substitution in one H chain only; also called He Ab I336G) heavy 1: not shown heavy 2: not shown light: DIVMTQSPLSLPVTPGEPASISCQASESLVHSNRNTYLHWYLQKPGQSPQLLIYKVSNRFSGVPDRFSGSGSGTDFTLKISRVEAEDVGVYYCSQNTHVPPTFGQGTKVEIERTVAAPSVFIFPPSDEQLKSGTASVVCLLNNFYPREAKVQWKVDNALQSGNSQESVTEQDSKDSTYSLSSTLTLSKADYEKHKVYACEVTHQGLSSPVTKSFNRGEC",109 % of control (control = 100),90.1 % of control (control = 100),1.21
"GpH7-A5/GpH7-B3 variant I336_02A/GpL16-k0 (antibody, human IgG1, kappa, He Ab: heterodimerized anti-glypican-3 IgG1, substitution in one H chain only; also called He Ab I336A) heavy 1: not shown heavy 2: not shown light: DIVMTQSPLSLPVTPGEPASISCQASESLVHSNRNTYLHWYLQKPGQSPQLLIYKVSNRFSGVPDRFSGSGSGTDFTLKISRVEAEDVGVYYCSQNTHVPPTFGQGTKVEIERTVAAPSVFIFPPSDEQLKSGTASVVCLLNNFYPREAKVQWKVDNALQSGNSQESVTEQDSKDSTYSLSSTLTLSKADYEKHKVYACEVTHQGLSSPVTKSFNRGEC",106 % of control (control = 100),84.9 % of control (control = 100),1.25
"GpH7-A5/GpH7-B3 variant I336_13S/GpL16-k0 (antibody, human IgG1, kappa, He Ab: heterodimerized anti-glypican-3 IgG1, substitution in one H chain only; also called He Ab I336S) heavy 1: not shown heavy 2: not shown light: DIVMTQSPLSLPVTPGEPASISCQASESLVHSNRNTYLHWYLQKPGQSPQLLIYKVSNRFSGVPDRFSGSGSGTDFTLKISRVEAEDVGVYYCSQNTHVPPTFGQGTKVEIERTVAAPSVFIFPPSDEQLKSGTASVVCLLNNFYPREAKVQWKVDNALQSGNSQESVTEQDSKDSTYSLSSTLTLSKADYEKHKVYACEVTHQGLSSPVTKSFNRGEC",102 % of control (control = 100),83.7 % of control (control = 100),1.22
"GpH7-A5/GpH7-B3 variant I336_15Y/GpL16-k0 (antibody, human IgG1, kappa, He Ab: heterodimerized anti-glypican-3 IgG1, substitution in one H chain only; also called He Ab I336Y) heavy 1: not shown heavy 2: not shown light: DIVMTQSPLSLPVTPGEPASISCQASESLVHSNRNTYLHWYLQKPGQSPQLLIYKVSNRFSGVPDRFSGSGSGTDFTLKISRVEAEDVGVYYCSQNTHVPPTFGQGTKVEIERTVAAPSVFIFPPSDEQLKSGTASVVCLLNNFYPREAKVQWKVDNALQSGNSQESVTEQDSKDSTYSLSSTLTLSKADYEKHKVYACEVTHQGLSSPVTKSFNRGEC",103 % of control (control = 100),68.2 % of control (control = 100),1.51
